One may read the stoichiometry N as a count of units in the complex or per binding partner.

This assay has as its target truncated HsDNPH1 (Homo sapiens 2′-deoxynucleoside 5′-phosphate N-hydrolase 1) (human) (UniProt O43598). The assay can be described thus: crystal structure; HsDNPH1^Trunc at 8 mg/mL in 30 mM Tris-HCl pH 7.5, 150 mM NaCl, hanging drop, 20 °C, reservoir pH 4.0 with 20% PEG 1500; unliganded crystals and crystals soaked with 50 mM dUMP.

In the case of “truncated HsDNPH1 (Homo sapiens 2′-deoxynucleoside 5′-phosphate N-hydrolase 1) (from UniProt O43598 20-162) (enzyme)”, the stoichiometry N came out at 2.

Values taken from publication PMC10483697.
